Earlier results on one substance are cited in publication PMC8062757.

What is called pKd is −log10 of the Kd, conventionally taken in molar units.

pKd: −log10 of the molar value.

This data set concerns the target Myostatin (Gallus gallus) (UniProt O42220).
Chain of UniProt O42220 (O42220 267-375): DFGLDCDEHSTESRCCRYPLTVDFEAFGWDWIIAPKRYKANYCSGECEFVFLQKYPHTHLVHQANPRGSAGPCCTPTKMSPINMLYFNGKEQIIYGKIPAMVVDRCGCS

Regarding Follistatin (from UniProt Q90844), the pKd is 9.23.
